According to patent US20140050720A1, “ULTRALONG COMPLEMENTARITY DETERMINING REGIONS AND USES THEREOF” (THE SCRIPPS RESEARCH INSTITUTE, priority 2012, published 2014):

Key:
Type in all cases: cell-based
GLP-1 receptor (GLP-1R) = molecular target: T1, GLP-1 receptor (GLP-1R) (Homo sapiens, UniProt P43220); assay: GLP-1R activation, cAMP responsive luciferase reporter in HEK293 cells; settings: HEK293 cells expressing GLP-1R, 24 h
T1 construct: expressed in transfected cells; host or cells: HEK293 cells expressing surface GLP-1R and a cAMP responsive luciferase reporter
T1 sequence (P43220 24-463, species assumed): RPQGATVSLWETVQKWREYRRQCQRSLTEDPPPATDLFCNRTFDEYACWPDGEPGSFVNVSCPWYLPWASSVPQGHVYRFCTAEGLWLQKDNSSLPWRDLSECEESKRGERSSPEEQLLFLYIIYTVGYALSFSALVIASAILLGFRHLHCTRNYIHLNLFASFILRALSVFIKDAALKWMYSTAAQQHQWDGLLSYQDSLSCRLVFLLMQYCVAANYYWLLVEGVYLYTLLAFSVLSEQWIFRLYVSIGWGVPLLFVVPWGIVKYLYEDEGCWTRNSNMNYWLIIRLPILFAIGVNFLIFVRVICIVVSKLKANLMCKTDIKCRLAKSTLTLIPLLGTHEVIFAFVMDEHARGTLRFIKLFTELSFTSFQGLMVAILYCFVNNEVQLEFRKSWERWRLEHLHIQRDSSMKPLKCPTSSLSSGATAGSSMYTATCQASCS
Description: HEK293 cells expressing surface GLP-1R and cAMP responsive luciferase reporter gene were seeded in 384 well plates at a density of 5000 cells per well. […] Subsequently, luciferase assay was performed using One-Glo luciferase reagent according manufacture's instruction (Promega).
HEK293 cells expressing surface GLP-1R and cAMP responsive luciferase reporter gene were seeded in 384 well plates at a density of 5000 cells per well. After 24 h incubation at 37° C. with 5% CO2, cells were treated with various concentrations of peptides and BLV1H12-GLP-1 clip fusion proteins and incubated for another 24 h. Subsequently, luciferase assay was performed using One-Glo luciferase reagent according manufacture's instruction (Promega).

Human T cells = assay: Inhibition of T cells activation (secreted TNF-α ELISA); settings: T cells activated by anti-CD3 and CD28 antibodies, 24 h
Description: Human PBMCs were isolated from fresh venous blood of healthy donors through ficoll gradient centrifugation, followed by resuspension in RPMI1640 medium with 10% FBS and plating in 96-well plates at a density of 1×10^6 cells/mL. Human T cells were purified from the isolated PBMCs using T cell enrichment kit. Purified PBMCs and T cells were pretreated for 1 h at 37° C. with 5% CO2 with various concentrations of purified BLV1H12-Moka1 fusion antibodies and then activated by anti-CD3 and CD28 antibodies. After 24 h treatment, supernatant was collected for measurement of the levels of secreted TNF-α using ELISA kit.
Human T cells were purified from the isolated PBMCs using T cell enrichment kit. Purified T cells were pretreated for 1 h at 37° C. with 5% CO2 with various concentrations of purified BLV1H12-VM24 fusion antibodies and then activated by anti-CD3 and CD28 antibodies. After 24 h treatment, supernatant was collected for measurement of the levels of secreted TNF-a using ELISA kit. FIGS. 18B-C and Table 15 show the BLV1H12-VM24 fusion antibodies inhibitory activities on T cells activation.

TF-1 cells = assay: Proliferation assay on TF-1 cells (AlamarBlue); settings: 72 h
Description: TF-1 cells were obtained from American Type Culture Collection (ATCC), VA, and cultured in RPMI-1640 medium supplemented with 10% fetal bovine serum (FBS), penicillin, streptomycin and 2 ng/mL granulocyte-macrophage colony-stimulating factor (GM-CSF). For proliferation assay, TF-1 cells were washed three times with RPMI-1640 medium and resuspended in RPMI-1640 medium with 10% FBS and penicillin and streptomycin at a density of 1.5×10^5 cells/ml. Cells were plated in 96-well plates and treated with varied concentrations of BLV1H12-hEPO fusion antibodies. After 72 h of incubation at 37° C. with 5% CO2, cells viabilities were measured using AlamarBlue (Invitrogen) assay following manufacture's instruction. FIG. 21 and Table 18 show the proliferative activity of Ab-hEPO fusion antibodies on TF1 cells.

Substance	RLU (luciferase reporter) (GLP-1 receptor (GLP-1R); 1.26953 nM)	RLU (luciferase reporter) (GLP-1 receptor (GLP-1R); 2.53906 nM)	RLU (luciferase reporter) (GLP-1 receptor (GLP-1R); 5.07813 nM)	RLU (luciferase reporter) (GLP-1 receptor (GLP-1R); 10.15625 nM)	RLU (luciferase reporter) (GLP-1 receptor (GLP-1R); 20.3125 nM)	RLU (luciferase reporter) (GLP-1 receptor (GLP-1R); 40.625 nM)	RLU (luciferase reporter) (GLP-1 receptor (GLP-1R); 81.25 nM)	RLU (luciferase reporter) (GLP-1 receptor (GLP-1R); 162.5 nM)	RLU (luciferase reporter) (GLP-1 receptor (GLP-1R); 325 nM)	RLU (luciferase reporter) (GLP-1 receptor (GLP-1R); 650 nM)	F.I. (secreted TNF-α, ELISA) (Human T cells; 0.45725 nM)	F.I. (secreted TNF-α, ELISA) (Human T cells; 1.37174 nM)	F.I. (secreted TNF-α, ELISA) (Human T cells; 4.11523 nM)	F.I. (secreted TNF-α, ELISA) (Human T cells; 12.34568 nM)	F.I. (secreted TNF-α, ELISA) (Human T cells; 37.03704 nM)	F.I. (secreted TNF-α, ELISA) (Human T cells; 111.11111 nM)	F.I. (secreted TNF-α, ELISA) (Human T cells; 333.33333 nM)	F.I. (secreted TNF-α, ELISA) (Human T cells; 1000 nM)	further results
Ab-Ex4(RN): BLV1H12-Ex-4 fusion antibody treated with Factor Xa protease to release N-terminal of Ex-4	128740	153820	163020	169360	161380	154920	163700	163860	164160	155700	–	–	–	–	–	–	–	–	RLU (luciferase reporter) (GLP-1 receptor (GLP-1R); 0.00248 nM): 24120; RLU (luciferase reporter) (GLP-1 receptor (GLP-1R); 0.00496 nM): 26320; RLU (luciferase reporter) (GLP-1 receptor (GLP-1R); 0.00992 nM): 28140; RLU (luciferase reporter) (GLP-1 receptor (GLP-1R); 0.01984 nM): 33500; RLU (luciferase reporter) (GLP-1 receptor (GLP-1R); 0.03967 nM): 34180; RLU (luciferase reporter) (GLP-1 receptor (GLP-1R); 0.07935 nM): 48860; RLU (luciferase reporter) (GLP-1 receptor (GLP-1R); 0.31738 nM): 80740; RLU (luciferase reporter) (GLP-1 receptor (GLP-1R); 0.63477 nM): 117240; RLU (luciferase reporter) (GLP-1 receptor (GLP-1R); 1300 nM): 168740
Ab-VM24 L1: Vm24 in BLV1H12 CDR3H, linker=GGGGS; DNA SEQ ID NO: 13	–	–	–	–	–	–	–	–	–	–	3427.004	3265.969	3499.82	3627.431	3575.4815	3085.439	1853.645	990.818	–
Ab-VM24-L2: Vm24 in BLV1H12 CDR3H, first linker=GGGSGGGGS and second linker=GGGGSGGGS; DNA SEQ ID NO: 14	–	–	–	–	–	–	–	–	–	–	3156.626	3345.846	3518.316	3607.5755	3508.0475	3220.2475	2465.838	1306.0215	–
Ab-hEPO: human EPO with GGGGS linkers grafted into BLV1H12 CDR3H; DNA SEQ ID NO: 10	–	–	–	–	–	–	–	–	–	–	–	–	–	–	–	–	–	–	F.I. (AlamarBlue, cell viability) (TF-1 cells; 0.00236 nM): 4198.65; F.I. (AlamarBlue, cell viability) (TF-1 cells; 0.01178 nM): 4757.196; F.I. (AlamarBlue, cell viability) (TF-1 cells; 0.05888 nM): 5265.069; F.I. (AlamarBlue, cell viability) (TF-1 cells; 0.2944 nM): 6430.723; F.I. (AlamarBlue, cell viability) (TF-1 cells; 1.472 nM): 8963.889; F.I. (AlamarBlue, cell viability) (TF-1 cells; 7.36 nM): 10330.18; F.I. (AlamarBlue, cell viability) (TF-1 cells; 36.8 nM): 10776.73; F.I. (AlamarBlue, cell viability) (TF-1 cells; 184 nM): 10330.44; F.I. (AlamarBlue, cell viability) (TF-1 cells; 4.71E−04 nM): 4324.037; F.I. (AlamarBlue, cell viability) (TF-1 cells; 9.42E−05 nM): 4361.92
Ab-Ex4: Exendin-4 with Factor Xa cleavage site and GGGGS linkers grafted into BLV1H12 CDR3H; DNA SEQ ID NO: 8	6120	6360	8500	10420	19340	27960	54800	90660	117900	134760	–	–	–	–	–	–	–	–	–
